Legend:
[1] = biological target: PBP1A (untagged, purified) (E. coli) (UniProt P02918)
[2] = biological target: PBP1B (untagged, purified) (E. coli) (UniProt P02919)
Sequence of PBP1B (untagged, purified) (E. coli) (P02919 46-844 limits assumed): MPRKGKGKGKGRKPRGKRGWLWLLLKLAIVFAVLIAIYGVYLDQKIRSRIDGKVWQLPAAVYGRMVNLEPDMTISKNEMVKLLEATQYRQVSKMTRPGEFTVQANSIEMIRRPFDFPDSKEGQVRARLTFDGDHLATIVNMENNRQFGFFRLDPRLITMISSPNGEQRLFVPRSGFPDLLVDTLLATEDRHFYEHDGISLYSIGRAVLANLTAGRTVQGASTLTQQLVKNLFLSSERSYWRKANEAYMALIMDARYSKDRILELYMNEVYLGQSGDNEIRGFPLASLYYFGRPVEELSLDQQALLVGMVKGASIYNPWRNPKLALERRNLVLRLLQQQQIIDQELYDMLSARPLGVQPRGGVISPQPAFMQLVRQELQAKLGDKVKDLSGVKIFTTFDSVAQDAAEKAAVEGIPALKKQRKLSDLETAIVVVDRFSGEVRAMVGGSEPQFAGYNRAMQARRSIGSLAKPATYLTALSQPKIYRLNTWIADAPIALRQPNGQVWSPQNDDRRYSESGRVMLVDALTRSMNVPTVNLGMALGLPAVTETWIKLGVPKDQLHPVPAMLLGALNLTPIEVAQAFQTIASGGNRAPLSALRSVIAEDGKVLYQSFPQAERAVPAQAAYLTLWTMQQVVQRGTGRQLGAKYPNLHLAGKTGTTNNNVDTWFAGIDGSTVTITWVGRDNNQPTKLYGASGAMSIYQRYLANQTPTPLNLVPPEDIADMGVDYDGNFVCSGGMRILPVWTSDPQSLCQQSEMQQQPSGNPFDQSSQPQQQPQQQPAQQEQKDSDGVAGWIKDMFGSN

Sequence of PBP1A (untagged, purified) (E. coli) (P02918 whole entry): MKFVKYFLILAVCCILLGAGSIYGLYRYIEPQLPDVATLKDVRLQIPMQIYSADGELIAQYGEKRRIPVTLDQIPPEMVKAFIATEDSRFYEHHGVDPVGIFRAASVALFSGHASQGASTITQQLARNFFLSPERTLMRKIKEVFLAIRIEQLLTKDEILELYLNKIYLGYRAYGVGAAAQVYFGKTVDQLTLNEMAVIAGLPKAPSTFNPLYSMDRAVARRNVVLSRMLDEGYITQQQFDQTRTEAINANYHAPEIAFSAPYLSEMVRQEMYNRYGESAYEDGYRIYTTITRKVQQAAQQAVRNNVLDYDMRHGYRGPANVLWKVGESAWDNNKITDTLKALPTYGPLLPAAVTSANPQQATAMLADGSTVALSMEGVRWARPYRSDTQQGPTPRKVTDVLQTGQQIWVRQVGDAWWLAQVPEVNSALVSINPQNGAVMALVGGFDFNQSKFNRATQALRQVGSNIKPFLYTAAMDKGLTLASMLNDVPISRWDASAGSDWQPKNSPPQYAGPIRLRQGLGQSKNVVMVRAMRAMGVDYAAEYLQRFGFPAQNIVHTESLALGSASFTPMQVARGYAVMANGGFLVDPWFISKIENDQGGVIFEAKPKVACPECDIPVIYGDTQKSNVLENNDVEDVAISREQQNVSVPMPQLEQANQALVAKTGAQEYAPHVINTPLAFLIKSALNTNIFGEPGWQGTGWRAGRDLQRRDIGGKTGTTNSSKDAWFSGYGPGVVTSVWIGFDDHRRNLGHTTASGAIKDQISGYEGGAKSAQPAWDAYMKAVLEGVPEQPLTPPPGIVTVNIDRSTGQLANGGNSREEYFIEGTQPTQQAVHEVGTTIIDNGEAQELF

GTase rate of PBP1A (consumption of dansylated lipid II), normalised to PBP1A alone, with ZipA [1] | GTase rate of PBP1A, normalised to PBP1A alone, with ZipA and FtsN together [1] | GTase rate of PBP1B (consumption of dansylated lipid II), normalised to PBP1B alone, with ZipA [2] | GTase rate of PBP1B, normalised to PBP1B alone, with ZipA and FtsN together [2] | GTase rate of PBP1A (consumption of dansylated lipid II), normalised to PBP1A alone, with FtsN [1] | GTase rate of PBP1B (consumption of dansylated lipid II), normalised to PBP1B alone, with FtsN [2] | Substance
2.6 fold | 3.4 fold | 1.4 fold | 3 fold | – | – | ZipA (untagged, oligohistidine tag removed by thrombin) (from UniProt P77173 1-328) (natural protein)
– | – | – | – | 1.3 fold | 2.6 fold | FtsN-His (from UniProt P29131 1-319) (natural protein)

Source: PMC6269477
